From article PMC9457993
Several values for one entry are separate records, joined by “and”; a condition that tells them apart may be missing. Equal values may be shown once.

Tests used:
Liraglutide [1] = experiment: SEC-MALS; HPLC-UV-dRI-MALS, Shodex Protein KW-802.5; mobile phase 1 g/L L-Arginine: Acetonitrile: acetic acid, 35:50:15 (results say 30% acetonitrile), isocratic 0.5 mL/min; Liraglutide FDF Lot #33387-18 and Saxenda Lot #JP54138, 6 mg/mL
Liraglutide [2] = experiment: AF4-MALS (asymmetrical flow field-flow fractionation with UV, fluorescence, dRI and MALS detection); thermally stressed, aggregated API (APIaggr), 3 mg/mL in formulation, 60 uL injected; formulation buffer as mobile phase
Liraglutide [3] = experiment: AF4-MALS (asymmetrical flow field-flow fractionation with UV, fluorescence, dRI and MALS detection); Liraglutide 6 mg/mL (API resuspended in water or formulation, FDF, Victoza, Saxenda), 30 uL injected; formulation buffer (disodium phosphate dihydrate, propylene glycol, phenol, water) as mobile phase; PES membrane 1 kDa cutoff; molar mass by MALS with dRI; n = 3
Liraglutide [4] = experiment: AF4-MALS (asymmetrical flow field-flow fractionation with UV, fluorescence, dRI and MALS detection); thermally stressed, aggregated API (APIaggr), 3 mg/mL in formulation, 60 uL injected; formulation buffer as mobile phase; remark: listed apart in the source

relative abundance of monomer (Liraglutide [1]): > 99.5% | stoichiometry N (Liraglutide [1]): 2 and 4 | stoichiometry N (Liraglutide [2]): 20 units | stoichiometry N (Liraglutide [3]): 5.2 units | stoichiometry N (Liraglutide [4]): > 20 units
Substance: Liraglutide (peptide)
